In US20230151095A1 (published 2023) one finds Kd data, which are given here for 20 molecules.

The experiment concerns the target T1, XENP23311 (His-tagged NKG2D-Fc) (human, UniProt P26718 78-216).
T1 chain: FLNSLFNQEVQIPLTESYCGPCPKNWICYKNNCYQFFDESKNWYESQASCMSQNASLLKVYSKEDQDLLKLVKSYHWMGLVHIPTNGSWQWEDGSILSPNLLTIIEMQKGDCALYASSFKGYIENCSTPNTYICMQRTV
Nature of the experiment: Octet. For orientation: BLI is a label-free optical method that tracks binding on a fibre tip over time.

B1: XENP40888 (LB_1002, 2+1 VHVL) (antibody)
chain 1: EVQLLESGGGLVQPGGSLRLSCAVSGFSLSSYGVIWVRQAPGKGLEYVSWVSSGGSTNYASSVKGRFTISRDTSKNTVYLQMNSLRAEDTAVYFCARGATNSGTDIWGPGTLVTVSSASTKGPSVFPLAPSSKSTSGGTAALGCLVKDYFPEPVTVSWNSGALTSGVHTFPAVLQSSGLYSLSSVVTVPSSSLGTQTYICNVNHKPSDTKVDKKVEPKSCDKTHTCPPCPAPELLGGPSVFLFPPKPKDTLMISRTPEVTCVVVDVSHEDPEVKFNWYVDGVEVHNAKTKPREEEYNSTYRVVSVLTVLHQDWLNGKEYKCKVSNKALPAPIEKTISKAKGQPREPQVYTLPPSREEMTKNQVSLTCDVSGFYPSDIAVEWESDGQPENNYKTTPPVLDSDGSFFLYSKLTVDKSRWEQGDVFSCSVMHEALHNHYTQKSLSLSPGK
chain 2: EVQLLESGGGLVQPGGSLRLSCAVSGFSLSSYGVIWVRQAPGKGLEYVSWVSSGGSTNYASSVKGRFTISRDTSKNTVYLQMNSLRAEDTAVYFCARGATNSGTDIWGPGTLVTVSSASTKGPSVFPLAPSSKSTSGGTAALGCLVKDYFPEPVTVSWNSGALTSGVHTFPAVLQSSGLYSLSSVVTVPSSSLGTQTYICNVNHKPSNTKVDKKVEPKSCGGGGSGGGGSEVQLVESGGGLVKPGGSLRLSCAASGFTFSSYSMNWVRQAPGKGLEWVSSISSSSSYIYYADSVKGRFTISRDNAKNSLYLQMNSLRAEDTAVYYCARGAPMGAAAGWFDPWGQGTLVTVSSGKPGSGKPGSGKPGSGKPGSDIQMTQSPSSVSASVGDRVTITCRASQGISSWLAWYQQKPGKAPKLLIYAASSLQSGVPSRFSGSGSGTDFTLTISSLQPEDFATYYCQQGVSFPRTFGGGTKVEIKGGGGSGGGGSKTHTCPPCPAPELLGGPSVFLFPPKPKDTLMISRTPEVTCVVVDVSHEDPEVKFNWYVDGVEVHNAKTKPREEQYNSTYRVVSVLTVLHQDWLNGKEYKCKVSNKALPAPIEKTISKAKGQPREPQVYTLPPSREQMTKNQVKLTCLVKGFYPSDIAVEWESNGQPENNYKTTPPVLDSDGSFFLYSKLTVDKSRWQQGNVFSCSVMHEALHNHYTQKSLSLSPGK
chain 3: DIVMTQSPSSLSASVGDRVTITCRASQSINSWLSWYQQKPGKPPKLLIYGASNLASGVPSRFKGSGSGTDFTLTISSLQPEDFATYYCQNNYGIIAAGATFGGGTKVEIKRTVAAPSVFIFPPSDEQLKSGTASVVCLLNNFYPREAKVQWKVDNALQSGNSQESVTEQDSKDSTYSLSSTLTLSKADYEKHKVYACEVTHQGLSSPVTKSFNRGEC
The term Kd denotes the equilibrium constant for the complex coming apart. The low end stands for higher affinity, the high end for lower affinity. With B1, binding was characterised by a dissociation constant (Kd) of 158 nM.

B2: XENP40590 (1D7B4, 2+1 VHVL) (antibody)
chain 1: B1 chain 1
chain 2: not shown
chain 3: B1 chain 3
In turn, B2 returned a dissociation constant (Kd) of 21.9 nM. This Kd lies about 7.2-fold lower than the previous one.

B3: XENP41340 (1D7B4, 2+1 VLVH) (antibody)
chain 1: B1 chain 1
chain 2: not shown
chain 3: B1 chain 3
B3 showed an equilibrium dissociation constant (Kd) of 18.4 nM.

B4: XENP41338 (LB_1002, 2+1 VLVH) (antibody)
chain 1: B1 chain 1
chain 2: EVQLLESGGGLVQPGGSLRLSCAVSGFSLSSYGVIWVRQAPGKGLEYVSWVSSGGSTNYASSVKGRFTISRDTSKNTVYLQMNSLRAEDTAVYFCARGATNSGTDIWGPGTLVTVSSASTKGPSVFPLAPSSKSTSGGTAALGCLVKDYFPEPVTVSWNSGALTSGVHTFPAVLQSSGLYSLSSVVTVPSSSLGTQTYICNVNHKPSNTKVDKKVEPKSCGGGGSGGGGSDIQMTQSPSSVSASVGDRVTITCRASQGISSWLAWYQQKPGKAPKLLIYAASSLQSGVPSRFSGSGSGTDFTLTISSLQPEDFATYYCQQGVSFPRTFGGGTKVEIKGKPGSGKPGSGKPGSGKPGSEVQLVESGGGLVKPGGSLRLSCAASGFTFSSYSMNWVRQAPGKGLEWVSSISSSSSYIYYADSVKGRFTISRDNAKNSLYLQMNSLRAEDTAVYYCARGAPMGAAAGWFDPWGQGTLVTVSSGGGGSGGGGSKTHTCPPCPAPELLGGPSVFLFPPKPKDTLMISRTPEVTCVVVDVSHEDPEVKFNWYVDGVEVHNAKTKPREEQYNSTYRVVSVLTVLHQDWLNGKEYKCKVSNKALPAPIEKTISKAKGQPREPQVYTLPPSREQMTKNQVKLTCLVKGFYPSDIAVEWESNGQPENNYKTTPPVLDSDGSFFLYSKLTVDKSRWQQGNVFSCSVMHEALHNHYTQKSLSLSPGK
chain 3: B1 chain 3
The molecule B4 had an equilibrium dissociation constant (Kd) of 630 nM. This Kd is about 34-fold higher than that of the molecule before.

B5: XENP40584 (LB_1001, 2+1 VHVL) (antibody)
chain 1: B1 chain 1
chain 2: not shown
chain 3: B1 chain 3
B5 registered a dissociation constant Kd of 122 nM. Against the preceding molecule, the Kd is about 5.2-fold lower.

B6: XENP41341 (LB_1001, mAb-scFv VLVH) (antibody)
chain 1: B1 chain 1
chain 2: not shown
chain 3: B1 chain 3
Consider B6, for which the Kd was 359 nM. This Kd is about 2.9-fold higher than that of the molecule before.

B7: XENP41333 (LB_1001, 1+1 VLVH) (antibody)
chain 1: B1 chain 1
chain 2: not shown
chain 3: B1 chain 3
In the case of B7, the affinity, expressed as Kd, was 42 nM.

B8: XENP41337 (LB_1001, 2+1 VLVH) (antibody)
chain 1: B1 chain 1
chain 2: not shown
chain 3: B1 chain 3
On to B8, for which the equilibrium dissociation constant (Kd) amounted to 278 nM. Against the preceding molecule, the Kd is about 6.6-fold higher.

B9: XENP40891 (LB_1002, mAb-scFv VHVL) (antibody)
chain 1: B1 chain 1
chain 2: not shown
chain 3: B1 chain 3
B9 registered a Kd of 327 nM.

B10: XENP41343 (1D2B4, mAb-scFv VLVH) (antibody)
chain 1: B1 chain 1
chain 2: not shown
chain 3: B1 chain 3
For the molecule B10, the dissociation constant (Kd) worked out at 115 nM.

B11: XENP41342 (LB_1002, mAb-scFv VLVH) (antibody)
chain 1: B1 chain 1
chain 2: not shown
chain 3: B1 chain 3
For B11, the Kd is 680 nM.

B12: XENP41344 (1D7B4, mAb-scFv VLVH) (antibody)
chain 1: B1 chain 1
chain 2: not shown
chain 3: B1 chain 3
The molecule B12 showed a Kd of 28.9 nM.

B13: XENP41334 (LB_1002, 1+1 VLVH) (antibody)
chain 1: B1 chain 1
chain 2: not shown
chain 3: B1 chain 3
In turn, B13 showed a dissociation constant (Kd) of 97.3 nM.

B14: XENP41336 (1D7B4, 1+1 VLVH) (antibody)
chain 1: B1 chain 1
chain 2: not shown
chain 3: B1 chain 3
Molecule B14 gave a dissociation constant (Kd) of 13.9 nM. This Kd is about 7-fold lower than that of the molecule before.

B15: XENP40457 (LB_1002, 1+1 VHVL) (antibody)
chain 1: B1 chain 1
chain 2: not shown
chain 3: B1 chain 3
Regarding B15, the affinity, expressed as Kd, was 458 nM.

B16: XENP41335 (1D2B4, 1+1 VLVH) (antibody)
chain 1: B1 chain 1
chain 2: not shown
chain 3: B1 chain 3
Molecule B16 showed a Kd of 41.7 nM.

B17: XENP40558 (1D7B4, mAb-scFv VHVL) (antibody)
chain 1: B1 chain 1
chain 2: not shown
chain 3: B1 chain 3
Regarding B17, the affinity, expressed as Kd, was 28.8 nM.

B18: XENP40375 (1D7B4, 1+1 VHVL) (antibody)
chain 1: B1 chain 1
chain 2: not shown
chain 3: B1 chain 3
As for B18, the Kd is 7.72 nM.

B19: XENP40552 (LB_1001, mAb-scFv VHVL) (antibody)
chain 1: B1 chain 1
chain 2: not shown
chain 3: B1 chain 3
Consider B19, for which binding was characterised by a dissociation constant (Kd) of 95.1 nM.

B20: XENP40555 (1D2B4, mAb-scFv VHVL) (antibody)
chain 1: B1 chain 1
chain 2: not shown
chain 3: B1 chain 3
In the case of B20, the Kd worked out at 83.8 nM. This Kd and that of the molecule before are within 1.5-fold of each other.
